PMC8584381, “A Small Step, a Giant Leap: Somatic Hypermutation of a Single Amino Acid Leads to Anti-La Autoreactivity” (International Journal of Molecular Sciences, 2021)
Substitutions are numbered along the chain they refer to. Names may count otherwise.

B1: murine 312B-IgG4 (scFv of the mature 312B VH and VL fused to human IgG4 Fc) (Fc fusion, mouse)
VH: QVKLQESGAELMKPGSSVKFSCKAAGYTFTDYWIEWLKQRPGHGLEWIGEILPGSVSIKYNEKFKGKATFTADTSSNTAYMQLSSLTSEDSAVYYCARSRSIYDGYFYYWGQGTTLTVSS
VL: DIVMTQSTASLSASVGETVTITCRASENIYTYLAWYQQKQGKSPQLLVYNAKTLAEGVPSRFSGSGSGTQFSLRINSLQPEDFGSYYCQHHYGTPYTFGGGTKLEIK
notes: flexible linker of three G4S motifs; VH-VL orientation; N-terminal murine Ig kappa leader for secretion; also called mature ab; source: permanent 3T3 production cell line, purified from cell culture supernatant (protein A); not shown: Fc (human IgG4, CH2 and CH3), C-terminal, kept
B2: mutated germline 312B-IgG4 with an aspartate to tyrosine mutation in the CDR3 region of the VH domain (Fc fusion, mouse)
VH: QVQLQQSGAELMKPGASVKLSCKATGYTFTGYWIEWVKQRPGHGLEWIGEILPGSGSTNYNEKFKGKATFTADTSSNTAYMQLSSLTTEDSAIYYCARSRSIYDGYFYYWGQGTTLTVSS
VL: B1 VL with V3Q, T8P, T31S, R74K
notes: as the germline VH of m6 with the aspartate in CDR3 replaced by tyrosine; flexible linker of three G4S motifs; as the germline VL of m6; VH-VL orientation; N-terminal murine Ig kappa leader for secretion; also called gl312B-D > Y; source: permanent 3T3 production cell line, purified from cell culture supernatant (protein A); not shown: Fc (human IgG4, CH2 and CH3), C-terminal, kept

Key:
[1] = biological target: T1, native human La protein of HeLa total cell extract (Homo sapiens (HeLa, endogenous), UniProt P05455); experiment: co-IP; HeLa total extract (50 nM Tris/HCl pH 8.0, 150 mM NaCl, 1% IGEPAL CA-630) mixed with 2 µg purified ab and Protein G MicroBeads, on ice 30 min; La detected by blot with anti-La mab 5B9; conditions: one partner purified
T1 construct: La protein (La/SS-B), human, endogenous in HeLa cells; also called native La protein; source: endogenous, HeLa total extract
T1 sequence (P05455 whole entry): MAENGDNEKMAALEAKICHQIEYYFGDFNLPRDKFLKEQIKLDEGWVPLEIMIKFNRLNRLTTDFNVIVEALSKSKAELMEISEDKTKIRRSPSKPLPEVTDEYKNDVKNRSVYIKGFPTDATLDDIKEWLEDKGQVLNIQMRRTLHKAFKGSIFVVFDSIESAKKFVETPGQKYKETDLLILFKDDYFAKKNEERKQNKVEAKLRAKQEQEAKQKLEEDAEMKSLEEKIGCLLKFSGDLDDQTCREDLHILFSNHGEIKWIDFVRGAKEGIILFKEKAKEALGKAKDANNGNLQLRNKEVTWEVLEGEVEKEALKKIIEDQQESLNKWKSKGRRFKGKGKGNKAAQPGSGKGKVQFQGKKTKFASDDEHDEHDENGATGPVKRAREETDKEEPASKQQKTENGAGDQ

[2] = biological target: T2, recombinant human La protein (Homo sapiens, UniProt P05455); experiment: far-Western, overlay or dot blot; SDS-PAGE/immunoblotting under denaturing conditions: 2 µg rh-La or TCM-La on nitrocellulose, IgG4 ab constructs at 1.5 µg/mL in Blocking Solution, detected with anti-human IgG4-HRP; conditions: both partners purified
T2 construct: La protein (La/SS-B, Sjögren's syndrome associated antigen B), human; It calls wildtype La an undefined mixture of oxidized and reduced protein; also called rh-La; wildtype La protein; source: bacteria lysates, purified (Ni-NTA)
T2 sequence (P05455 whole entry): as above

Binder | binding result [1] | binding result [2]
B1 | binds | binds
B2 | binds | binds
